Data set [1] concerns the molecule itself. The experiment in a line: SEC-MALS; Superdex 200 Increase 10/300 GL, 20 mM Tris pH 8.0, 150 mM KCl, 2 mM DTT; ΔCtip and LFIL loaded at 1 mg/ml after stepwise dilution.
Data set [2] concerns the molecule itself. As to the kind of experiment: SEC-SAXS; Superdex 200 Increase 10/300 GL, 20 mM Tris pH 8.0, 150 mM KCl; ΔCtip and LFIL analysed at ~30 mg/ml to minimise dissociation.
Data set [3] deals with the molecule itself. As to the kind of experiment: SEC-MALS; Superdex 200 Increase 10/300 GL, 20 mM Tris pH 8.0, 150 mM KCl, 2 mM DTT; wild-type and FFV at >10 mg/ml and at 1 mg/ml; species stable across 1-10 mg/ml.
Data set [4] deals with the molecule itself. The experiment in a line: SEC-SAXS; Superdex 200 Increase 10/300 GL, 20 mM Tris pH 8.0, 150 mM KCl; samples at >5 mg/ml; beamline B21, Diamond Light Source.
Data set [5] concerns the molecule itself. The experiment in a line: crystal structure; TEX12 FFV at 43 mg/ml, sitting drops, 200 mM calcium acetate, 40% MPD, 20 °C; C222_(1), 1.45 Å, two chains per asymmetric unit.

Changes are numbered by the printed parent chain. Names may count otherwise.

B1: TEX12 ΔCtip (amino-acids 49–113) (domain or fragment, human, UniProt Q9BXU0 49-113, looked up)
chain: KDEALEKDLNDVSKEINLMLSTYAKLLSERAAVDASYIDEIDELFKEANAIENFLIQKREFLRQR
notes: TEX12, human, core without the C-terminal tip (deletion of amino-acids 114-123), amino-acids 49-113; Tetramer in the crystal (6HK8); in solution tetramers in concentration-dependent equilibrium with dimers; also called TEX12 ΔCtip (49–113); source: E. coli BL21 (DE3), purified (Ni-NTA, amylose, HiTrap Q HP, TEV cleavage, SEC); not shown: His, N-terminal, cleaved; MBP, N-terminal, cleaved
For B1, the “stoichiometry N” value in data set [1] was 2; in data set [2], 4.

B2: TEX12 core (amino-acids 49–123) wild-type (domain or fragment, human, UniProt Q9BXU0 49-123, looked up)
chain: KDEALEKDLNDVSKEINLMLSTYAKLLSERAAVDASYIDEIDELFKEANAIENFLIQKREFLRQRFTVIANTLHR
notes: TEX12, human, structural core, amino-acids 49-123; expressed from pMAT11 as a TEV-cleavable His-MBP fusion; also called TEX12 wild-type; WT; source: E. coli BL21 (DE3), purified (Ni-NTA, amylose, HiTrap Q HP, TEV cleavage, SEC); not shown: His, N-terminal, cleaved; MBP, N-terminal, cleaved
For B2, the “stoichiometry N” value in data set [3] is 2.

B3: TEX12 core (amino-acids 49–123) F102A F109E V116A (FFV) (domain or fragment, human, UniProt Q9BXU0 49-123, looked up)
chain: B2 chain with F54A, F61E, V68A
notes: TEX12, human, structural core, amino-acids 49-123, with mutations of solvent-exposed residues; both crystal forms (6HK9, 6R2F) show dimers; The introduction gives the FFV of the earlier work as F102A F109A V116A; also called TEX12 FFV; TEX12 (49–123) FFV; source: E. coli BL21 (DE3), purified (Ni-NTA, amylose, HiTrap Q HP, TEV cleavage, SEC); not shown: His, N-terminal, cleaved; MBP, N-terminal, …
As to B3, the “stoichiometry N” value in data set [4] is 4; in data set [5], 2.

B4: TEX12 core (amino-acids 49–123) L110E F114E I117E L121E (LFIL) (domain or fragment, human, UniProt Q9BXU0 49-123, looked up)
chain: B2 chain with L62E, F66E, I69E, L73E
notes: TEX12, human, structural core, amino-acids 49-123, with glutamate mutations of the Ctip heptad amino-acids; In solution tetramers in concentration-dependent equilibrium with dimers; also called TEX12 LFIL; source: E. coli BL21 (DE3), purified (Ni-NTA, amylose, HiTrap Q HP, TEV cleavage, SEC); not shown: His, N-terminal, cleaved; MBP, N-terminal, cleaved
Turning to B4, the “stoichiometry N” value was found to be 2 in data set [1] and 4 in data set [2].

(Values after article PMC9452514, “Coiled-coil structure of meiosis protein TEX12 and conformational regulation by its C-terminal tip” (Communications Biology, 2022).)
